As usually defined, the EC50 is the concentration needed to bring the measured effect to its halfway point. Higher therefore signals a less potent agent. By Kd is commonly meant the concentration at which binding is half-saturated. High values mean lower affinity, low ones higher affinity.

Results on 3 molecules are retold here after patent US20060127407A1 (IMMUNOGEN, published 2006).

Experiment [1] has as its target T1, alphaVbeta3 integrin (human, UniProt P06756 31-1048; P05106 27-788).
T1 construct: Purified integrin coated on plates; also called αvβ3; αVβ3
The experiment can be described thus: ELISA, purified antibody on alphaVbeta3. (In general: ELISA stands for enzyme-linked immunosorbent assay.)

For experiment [2], the target named is T1, alphaVbeta3 integrin. The experiment is described as follows: saturation binding curve, 125-I CNTO 95 on αvβ3 coated plates. The protocol:
(§1) A375S2 and M21 cells express both αvβ₃ and αᵥβ₅, HT-29 cells express αvβ5. For comparison, other Mabs capable of binding integrins were used. The Kd was calculated from a saturation binding curve in each case using multiple replicates of multiple lots of antibody.

The target in experiment [3] is T2, alphaVbeta5 integrin (UniProt P06756 31-1048; P18084 24-799).
T2 construct: Purified integrin coated on plates; also called αvβ5; alphaVbetaS protein
The experiment is described as follows: saturation binding curve, 125-I CNTO 95 on αvβ5 coated plates. The protocol: as §1

Experiment [4] deals with T1, alphaVbeta3 integrin. The experiment is described as follows: ELISA on alphaVbeta3 protein, absorbance against concentration.
For experiment [5], the target named is T2, alphaVbeta5 integrin. The experiment can be described thus: ELISA on alphaVbeta5 protein, absorbance against concentration.
Experiment [6] addresses T3, alphaV subunit integrins on human tumor cells (HT29, A549, A2780) (human, UniProt P06756 31-1048).
T3 construct: whole, on cells; the cell line of each number is named under assay; also called alphaV integrins on living cells
The experiment can be described thus: flow cytometry on A549 human lung carcinoma cells, FITC anti-human antibody. The protocol:
(§2) Cells: HT29 human colon carcinoma and A549 human lung carcinoma cells were from ATCC and maintained in alphaMEM supplemented with 10% fetal bovine serum (FBS). A2780 human ovarian carcinoma cells were obtained from National Cancer Institute. A2780 cells were cultured in RPMI 1640 medium containing 10% FBS. […] Absence of primary antibody or substitution of primary antibody with isotype matched antibody served as negative controls. Cells were immediately analyzed with a FACS Scan II flow cytometer (Becton Dickinson, Mountain View, Calif.). Data was analyzed with GraphPad Prism software using non-liner regression to determine the concentration at 50% maximal binding (Table 7).

For experiment [7], the target named is T3, alphaV subunit integrins on human tumor …. The experiment is described as follows: flow cytometry on HT29 human colon carcinoma cells, FITC anti-human antibody. Here is the method: as §2
For orientation: Flow cytometry measures light scatter and fluorescence of single cells or particles in a stream.

The target is the same in experiment [8]. The experiment can be described thus: flow cytometry on A2780 human ovarian carcinoma cells, FITC anti-human antibody. The protocol: as §2
The target in experiment [9] is T1, alphaVbeta3 integrin. The experiment is described as follows: saturation binding curve on αvβ3 coated plates.

T1 sequence (P06756 31-1048, chain 1 of 2): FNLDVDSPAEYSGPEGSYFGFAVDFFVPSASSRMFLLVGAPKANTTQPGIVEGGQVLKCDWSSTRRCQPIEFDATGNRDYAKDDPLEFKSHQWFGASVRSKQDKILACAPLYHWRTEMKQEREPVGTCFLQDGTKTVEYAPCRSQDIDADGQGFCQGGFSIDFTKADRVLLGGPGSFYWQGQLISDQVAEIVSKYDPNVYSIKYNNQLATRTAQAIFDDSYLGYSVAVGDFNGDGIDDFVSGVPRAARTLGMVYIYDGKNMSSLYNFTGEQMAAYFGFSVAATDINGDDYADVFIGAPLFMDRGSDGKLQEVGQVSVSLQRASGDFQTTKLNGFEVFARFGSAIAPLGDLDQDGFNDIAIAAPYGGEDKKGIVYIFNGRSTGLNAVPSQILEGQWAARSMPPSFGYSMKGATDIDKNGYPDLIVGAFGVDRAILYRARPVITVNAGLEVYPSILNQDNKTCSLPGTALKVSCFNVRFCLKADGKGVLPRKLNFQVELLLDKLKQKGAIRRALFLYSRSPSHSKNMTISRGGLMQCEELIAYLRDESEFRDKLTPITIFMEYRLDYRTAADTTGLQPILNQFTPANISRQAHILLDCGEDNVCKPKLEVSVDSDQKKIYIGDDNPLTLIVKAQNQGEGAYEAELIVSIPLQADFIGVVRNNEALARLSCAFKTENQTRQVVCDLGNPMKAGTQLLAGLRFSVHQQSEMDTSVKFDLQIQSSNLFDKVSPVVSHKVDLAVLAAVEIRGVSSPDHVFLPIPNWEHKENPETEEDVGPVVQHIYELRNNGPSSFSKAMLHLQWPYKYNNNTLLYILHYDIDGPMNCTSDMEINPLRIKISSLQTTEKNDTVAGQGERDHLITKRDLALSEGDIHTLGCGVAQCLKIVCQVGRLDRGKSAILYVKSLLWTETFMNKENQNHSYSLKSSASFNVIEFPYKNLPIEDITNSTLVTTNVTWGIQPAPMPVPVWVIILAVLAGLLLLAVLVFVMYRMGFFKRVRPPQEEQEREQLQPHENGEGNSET
T1 sequence (P05106 27-788, chain 2 of 2): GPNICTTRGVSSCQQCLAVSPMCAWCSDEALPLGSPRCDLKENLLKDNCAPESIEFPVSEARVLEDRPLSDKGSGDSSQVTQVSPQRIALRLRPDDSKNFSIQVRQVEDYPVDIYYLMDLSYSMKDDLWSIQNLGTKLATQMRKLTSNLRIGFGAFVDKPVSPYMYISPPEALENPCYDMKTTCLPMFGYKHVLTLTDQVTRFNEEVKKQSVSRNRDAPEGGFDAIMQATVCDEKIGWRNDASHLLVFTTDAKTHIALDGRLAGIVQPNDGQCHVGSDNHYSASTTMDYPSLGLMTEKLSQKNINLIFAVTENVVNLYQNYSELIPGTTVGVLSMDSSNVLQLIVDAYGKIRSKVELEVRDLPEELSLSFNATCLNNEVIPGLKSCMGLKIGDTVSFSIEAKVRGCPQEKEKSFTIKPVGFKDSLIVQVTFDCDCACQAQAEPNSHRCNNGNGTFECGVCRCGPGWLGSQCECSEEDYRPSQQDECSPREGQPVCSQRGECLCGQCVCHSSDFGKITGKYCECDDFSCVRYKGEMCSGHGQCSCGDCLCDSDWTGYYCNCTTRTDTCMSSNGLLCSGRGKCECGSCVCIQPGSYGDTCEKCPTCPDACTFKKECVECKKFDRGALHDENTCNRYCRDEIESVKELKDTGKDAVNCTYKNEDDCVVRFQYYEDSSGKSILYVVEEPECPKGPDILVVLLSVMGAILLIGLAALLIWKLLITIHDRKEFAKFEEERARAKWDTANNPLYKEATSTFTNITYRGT
T3 sequence (P06756 31-1048): as the sequence (P06756 31-1048, chain 1 of 2) above
T2 sequence (P06756 31-1048, chain 1 of 2): as above
T2 sequence (P18084 24-799, chain 2 of 2): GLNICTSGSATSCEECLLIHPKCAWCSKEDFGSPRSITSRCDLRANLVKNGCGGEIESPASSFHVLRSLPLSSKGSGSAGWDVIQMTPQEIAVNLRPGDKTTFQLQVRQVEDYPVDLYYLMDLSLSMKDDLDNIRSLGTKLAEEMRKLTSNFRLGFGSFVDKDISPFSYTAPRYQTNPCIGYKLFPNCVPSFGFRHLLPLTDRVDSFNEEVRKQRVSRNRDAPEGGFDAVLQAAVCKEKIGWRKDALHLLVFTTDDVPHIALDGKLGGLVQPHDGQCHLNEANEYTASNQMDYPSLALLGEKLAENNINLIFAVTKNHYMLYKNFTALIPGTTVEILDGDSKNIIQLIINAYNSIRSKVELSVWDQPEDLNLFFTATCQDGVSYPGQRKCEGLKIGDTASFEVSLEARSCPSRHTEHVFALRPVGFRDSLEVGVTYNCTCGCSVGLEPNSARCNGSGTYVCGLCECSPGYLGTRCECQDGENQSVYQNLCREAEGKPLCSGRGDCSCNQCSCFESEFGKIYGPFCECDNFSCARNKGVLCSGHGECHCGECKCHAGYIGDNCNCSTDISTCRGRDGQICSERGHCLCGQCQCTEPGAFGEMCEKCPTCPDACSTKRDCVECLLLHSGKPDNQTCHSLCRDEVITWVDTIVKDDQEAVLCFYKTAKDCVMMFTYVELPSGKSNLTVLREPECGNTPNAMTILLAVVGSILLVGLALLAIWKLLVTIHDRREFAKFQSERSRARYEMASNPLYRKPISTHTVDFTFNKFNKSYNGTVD

B1: Monoclonal antibody CNTO 95 (antibody, IgG1, V domains shown)
VH: QVQLVESGGGVVQPGRSRRLSCAASGFTFSRYTMHWVRQAPGKGLEWVAVISFDGSNKYYVDSVKGRFTISRDNSENTLYLQVNILRAEDTAVYYCAREARGSYAFDIWGQGTMVTVSS
VL: EIVLTQSPATLSLSPGERATLSCRASQSVSSYLAWYQQKPGQAPRLLIYDASNRATGIPARFSGSGSGTDFTLTISSLEPEDFAVYYCQQRSNWPPFTFGPGTKVDIK
notes: also called C371A; Mab CNTO 95
In the case of B1, the EC50 in the experiment with alphaVbeta3 integrin [1] is 0.7 µg/mL; in [6], 180 µg/mL; in [7], 140 µg/mL; in experiment [8] it was 170 µg/mL. Moreover, the Kd is 0.21 nM in the experiment with alphaVbeta3 integrin [2], 0.025 nM in the experiment with alphaVbeta5 integrin [3], around 3 nM with alphaVbeta3 integrin [4] and 0.03 nM in the experiment with alphaVbeta5 integrin [5].

B2: CNTO 364 (CNTO 95-SPP-DM1) (antibody, human IgG1, V domains shown)
VH: B1 VH
VL: B1 VL
modifications: maytansinoid DM1 linked through SPP (disulfide) to amino acid side chains, positions not given
notes: Antibody-drug conjugate of CNTO 95 (human IgG1 kappa); also called CNTO 95-DM1; the conjugate
With B2, the Kd is around 3 nM in the experiment with alphaVbeta3 integrin [4] and 0.035 nM with alphaVbeta5 integrin [5]. Moreover, the EC50 in [6] was determined as 270 µg/mL; in experiment [7], 190 µg/mL; in [8] it was 270 µg/mL.

B3: abciximab (Fab, V domains shown)
VH: EVQLQQSGTVLARPGASVKMSCEASGYTFTNYWMHWVKQRPGQGLEWIGAIYPGNSDTSYIQKFKGKAKLTAVTSTTSVYMELSSLTNEDSAVYYCTLYDGYYVFAYWGQGTLVTVSA
VL: EIVLTQSPVTLSVTPGDSVSLSCRASRDISNNLHWFQQTSHESPRLLIKYASQSMSGIPSRFSGSGSGTDFTLSINSVETEDFGMYFCQQTNSWPYTFGGGTKLEIK
In the case of B3, the Kd with alphaVbeta3 integrin [9] was determined as 0.25 nM.
